# Experimental data published in article PMC11833123, “A bipartite bacterial virulence factor targets the complement system and neutrophil activation” (The EMBO Journal, 2025).
# T1: GST-CXCR1 (recombinant, from E. coli) (UniProt P25024 1-350)
# T1 construct: CXCR1 (Uniport entry P25024), full length, gene codon optimized and synthesized, cloned into pGEX-6P-1; also called CXCR1 from E.coli; recombinant GST-CXCR1; source: E. coli BL21, purified (Glutathione Agarose with 5% sarkosyl in the lysis buffer, SEC); not shown: GST, N-terminal, kept
# T1 sequence: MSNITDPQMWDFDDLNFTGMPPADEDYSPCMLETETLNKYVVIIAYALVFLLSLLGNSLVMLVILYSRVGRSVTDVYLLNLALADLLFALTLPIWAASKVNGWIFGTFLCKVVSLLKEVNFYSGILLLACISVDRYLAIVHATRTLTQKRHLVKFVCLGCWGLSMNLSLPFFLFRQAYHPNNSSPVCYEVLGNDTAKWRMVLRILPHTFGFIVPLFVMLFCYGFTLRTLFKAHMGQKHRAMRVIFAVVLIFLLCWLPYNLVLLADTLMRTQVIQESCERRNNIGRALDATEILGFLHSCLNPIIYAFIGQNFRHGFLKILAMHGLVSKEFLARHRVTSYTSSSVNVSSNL
# B1: N0362, the N-terminus of TDE0362 (23–204 aa) (domain or fragment)
# chain: KNNLLTKTEKEKSGEIPVKNIILSPNKSEFSLEKNTAQTITVKIIPEKATNKALIYSSKHGDIASIDNTGLITAKKEGRTIITIEASNGVKKTIDVIVTPEPIPVTNIEFEEEPPAFLFIGDVYIFKAKAKPDEATNRKLEYTTMTSDVISVTNTELGTMKATKEGNAAITIRSASTPSVAK
# modifications: Alexa Fluor 488 label (only in the immunofluorescence on cells)
# notes: TDE0362 of Treponema denticola ATCC 35405 (647 aa pre-protein), residues 23-204 with both bacterial Ig-like domains Big_1 and Big_2; Cloned in pET100/D-TOPO, which encodes the N-terminal 6xHis-tag; The same construct was used unlabelled (pull-down, ELISA, SPR) and labelled with Alexa Fluor 488 (cells); also called recombinant N0362; His-tagged N0362; source: E. coli BL21-CodonPlus (DE3)-RIL, …
# What was measured:
# [1] = biological target: C0362, C-terminal part of TDE0362 with the Mac-like domain (205–647 aa) (Treponema denticola ATCC 35405) (UniProt Q73QT1); assay: SEC; dimer fraction noted during SEC of purified C0362; column and buffer are not tied to this remark
# [2] = biological target: T1, GST-CXCR1 (recombinant, from E. coli); assay: SPR; GST-CXCR1 coupled (EDC/NHS) to CM5 sensor chips, N0362 flowed over (0.05 or 0.1 µM to 3 µM), 25 °C, dPBS with 0.01% Tween 20, Reichert SR7500DC; kinetics globally fit to a one to two binding model, affinity model for saturation; conditions: both partners purified
Molecule,fraction of the total material that was dimer [1],Kd [2],koff [2],kon [2]
"C0362, C-terminal part of TDE0362 with the Mac-like domain (205–647 aa) (from UniProt Q73QT1 205-647) (enzyme)",10%,–,–,–
B1,–,264 ± 2.3 nM,0.000857 s⁻¹,4950 M⁻¹ s⁻¹
